The test has as its target T1, p32 (Homo sapiens, UniProt Q07021).
T1 chain: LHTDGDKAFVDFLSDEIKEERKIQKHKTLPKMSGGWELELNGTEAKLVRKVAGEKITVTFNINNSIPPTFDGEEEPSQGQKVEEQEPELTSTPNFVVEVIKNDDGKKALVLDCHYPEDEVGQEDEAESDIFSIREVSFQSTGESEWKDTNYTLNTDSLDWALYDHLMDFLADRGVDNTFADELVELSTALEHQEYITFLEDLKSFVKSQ
The test is described as follows: SPR. For orientation: SPR reads the build-up and loss of mass on a sensor chip optically.

Bridges are numbered along the chain shown (N, C = ends). Where no end group is shown, it is not given here.

As for CGNKRTRGC (disulfide 1-9) [Lyp-1], the Kd (commonly the constant that tells how readily two partners part at equilibrium) is 10.6 nM.

(Values after paper PMC3598503 (2013).)
